Test results published in paper PMC7611231, “Allosteric Activation of the ATPase Activity of the Escherichia coli RhlB RNA Helicase*” (The Journal of biological chemistry, 2007).

B1: Escherichia coli DEAD box RNA helicase RhlB, wild type (enzyme, E. coli, UniProt P0A8J8 1-421, looked up)
chain: MSKTHLTEQKFSDFALHPKVVEALEKKGFHNCTPIQALALPLTLAGRDVAGQAQTGTGKTMAFLTSTFHYLLSHPAIADRKVNQPRALIMAPTRELAVQIHADAEPLAEATGLKLGLAYGGDGYDKQLKVLESGVDILIGTTGRLIDYAKQNHINLGAIQVVVLDEADRMYDLGFIKDIRWLFRRMPPANQRLNMLFSATLSYRVRELAFEQMNNAEYIEVEPEQKTGHRIKEELFYPSNEEKMRLLQTLIEEEWPDRAIIFANTKHRCEEIWGHLAADGHRVGLLTGDVAQKKRLRILDEFTRGDLDILVATDVAARGLHIPAVTHVFNYDLPDDCEDYVHRIGRTGRAGASGHSISLACEEYALNLPAIETYIGHSIPVSKYNPDALMTDLPKPLRLTRPRTGNGPRRTGAPRNRRRSG
notes: The same untagged protein from two vectors (pET11a alone; second cloning site of pRSF-Duet-1, NdeI/XhoI, in pRneRhlB); also called WT RhlB; Helicase B; source: E. coli BL21(DE3), pET11a, purified (published procedure plus S200 size exclusion)
B2: N-terminal His6-tagged RNase E residues 696-762 (domain or fragment, E. coli, UniProt P21513 696-762, looked up)
chain: ALNVEEQSVQETEQEERVRPVQPRRKQRQLNQKVRYEQSVAEEAVVAPVVEETVAAEPIVQEAPAPR
notes: Cloned BamHI/SalI in the first cloning site of pRSF-Duet-1; also called RNase E peptide; source: E. coli, pRSF-Duet-1, purified (Ni-NTA, S200); also co-expressed with RhlB from pRneRhlB in E. coli BL21(DE3), co-purified (Ni-NTA, SP, S200); not shown: His6, N-terminal, kept

Assays:
[1] = target: RNase E 628-843 (Escherichia coli) (UniProt P21513); conditions: cited from earlier work
[2] = target: B2; experiment: SEC; co-expressed in E. coli from a di-cistronic vector; His6-RNase E-(696-762) held on Ni-NTA, then SP column and S200 size exclusion; fractions on SDS-PAGE; conditions: partners not purified
RhlB S381A (E. coli) [3] = target: RhlB S381A (E. coli)
RhlB S381A (E. coli) [4] = experiment: ITC; 300 uM RNase E-(696-762) in the syringe titrated into 20 uM WT RhlB or variant in the cell; 25 C; 50 mM potassium phosphate pH 7.4, 100 mM NaCl, 1 mM dithiothreitol (methods; the table's caption says 100 mM KPi, 50 mM NaCl); 1:1 model; Ka are lower limits
RhlB H320D (E. coli) = experiment: as above
[5] = target: B1; experiment: native MS; nanoflow ESI under non-dissociating conditions; co-expressed complex after size exclusion chromatography, 5-20 uM, 250 mM ammonium acetate; MS/MS of the +15 ion; conditions: both partners purified
[6] = target: B1; experiment: ITC; 300 uM RNase E-(696-762) in the syringe titrated into 20 uM WT RhlB or variant in the cell; 25 C; 50 mM potassium phosphate pH 7.4, 100 mM NaCl, 1 mM dithiothreitol (methods; the table's caption says 100 mM KPi, 50 mM NaCl); 1:1 model; Ka are lower limits; conditions: both partners purified

RNase E 628-843 (Escherichia coli), sequence (P21513 628-843): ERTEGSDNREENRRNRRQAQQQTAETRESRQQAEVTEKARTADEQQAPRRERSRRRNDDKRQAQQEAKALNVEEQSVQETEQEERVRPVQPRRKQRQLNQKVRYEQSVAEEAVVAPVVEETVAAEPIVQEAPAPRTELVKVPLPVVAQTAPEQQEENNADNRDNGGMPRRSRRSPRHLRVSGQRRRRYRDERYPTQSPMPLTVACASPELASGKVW

Molecule: RhlB (from UniProt P0A8J8)
Kd [1]: 50 nM

Molecule: B1
stoichiometry N [2]: ~1

Molecule: B2
ATPase activity of S381A RhlB with RNase E-(696-762) and bulk S. cerevisiae RNA (S381A RhlB alone: ≤0.5) (mol Pi/min/mol protein) (RhlB S381A (E. coli) [3]): 9.4
Ka (RhlB S381A (E. coli) [4]): > 8e+07 M⁻¹
dH (RhlB S381A (E. coli) [4]): -23.3 kcal/mol
stoichiometry N (RhlB S381A (E. coli) [4]): 1.2
Ka (RhlB H320D (E. coli)): > 7e+07 M⁻¹
dH (RhlB H320D (E. coli)): -29 kcal/mol
stoichiometry N (RhlB H320D (E. coli)): 0.83
stoichiometry N [5]: 1
Ka [6]: ≥ 1.1e+08 M⁻¹
dH [6]: -27.6 kcal/mol
stoichiometry N [6]: 0.92
